The results in this text go back to article PMC2787366.

Common to all, as to test: fluorescence polarisation
Test [1] concerns the target G9aK185me3 peptide (fluorescence polarization).
Test [2] has as its target H3 peptide dimethylated on lysine 9 (fluorescence polarization).
The target of test [3] is H3K9me3 peptide (fluorescence polarization).

B1: hCDYL1b chromodomain (1–78 aa) (domain or fragment)
chain: MASEELYEVERIVDKRKNKKGKTEYLVRWKGYDSEDDTWEPEQHLVNCEEYIHDFNRRHTEKQKESTLTRTNRTSPNN
A word on the Kd: it is the constant that tells how readily two partners part at equilibrium. Read a high Kd as weaker binding. As for B1, the values for the Kd in test [1] and in test [3] were 8 µM and 2000 nM, respectively. Also, the fold weaker than with the H3K9me3 peptide in test [2] turned out to be 1.5 fold.
